Consider 25 sequences from the supplement of paper PMC9233669.

Fewer inactive variants are shown than the library holds.

For series [1], the system named is biotinyl-Phe-oxazolone. Briefly: self-aminoacylation, catalytic enhancement (BFO) (fold over background); higher = more active; k-Seq, kA / k0A0; sequences stand for … in GGGAAUGGAUCCACAUCUACGAAUUC…UUCACUGCAGACUUGACGAAGCUG
The gist of the method:
(§1)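 Mutagenized RNA pools with a 21-nt variable region (0.43 μM) were reacted with each biotinyl-aminoacyl-oxazolone at 2–1250 μM for 90 minutes at room temperature, in 50 μL HEPES/NaCl/KCl/MgCl2/CaCl2 buffer containing 5% acetonitrile at pH 6.9–7.0. RNA captured on streptavidin was quantified by triplicate qPCR and by Illumina sequencing. The fraction reacted for each sequence was fit to a pseudo-first-order model with bootstrapping, and catalytic enhancement is the median kA divided by the uncatalyzed rate, taken as the low-activity peak of a bimodal Gaussian fit.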

Series [2] has as its system biotinyl-Ile-oxazolone. In words: self-aminoacylation, catalytic enhancement (BIO) (fold over background); higher = more active; k-Seq, kA / k0A0; sequences stand for … in GGGAAUGGAUCCACAUCUACGAAUUC…UUCACUGCAGACUUGACGAAGCUG
The gist of the method:
as §1

Series [3] relates to biotinyl-Met-oxazolone. Briefly: self-aminoacylation, catalytic enhancement (BMO) (fold over background); higher = more active; k-Seq, kA / k0A0; sequences stand for … in GGGAAUGGAUCCACAUCUACGAAUUC…UUCACUGCAGACUUGACGAAGCUG
The procedure, abridged:
as §1

Series [4] concerns biotinyl-Val-oxazolone. In words: self-aminoacylation, catalytic enhancement (BVO) (fold over background); higher = more active; k-Seq, kA / k0A0; sequences stand for … in GGGAAUGGAUCCACAUCUACGAAUUC…UUCACUGCAGACUUGACGAAGCUG
The gist of the method: as §1

Series [5] relates to biotinyl-Leu-oxazolone. Briefly: self-aminoacylation, catalytic enhancement (BLO) (fold over background); higher = more active; k-Seq, kA / k0A0; sequences stand for … in GGGAAUGGAUCCACAUCUACGAAUUC…UUCACUGCAGACUUGACGAAGCUG
The procedure, abridged: as §1

Series [6] deals with biotinyl-Trp-oxazolone. Briefly: self-aminoacylation, catalytic enhancement (BWO) (fold over background); higher = more active; k-Seq, kA / k0A0; sequences stand for … in GGGAAUGGAUCCACAUCUACGAAUUC…UUCACUGCAGACUUGACGAAGCUG
The procedure, abridged:
as §1

As for “AUUCACCUAGGUCAGCGGGUA [Fam2.2 aminoacylation ribozyme variant]”, the self-aminoacylation in series [1] worked out at 10.5; in series [2] it was 2.12; in series [3], 2.18; in series [4], 2.08; in series [5], 3.01; in series [6], 2.05.
Turning to “AAUCACCCAGGUCAUCGGGUG [Fam2.2 aminoacylation ribozyme variant]”, the self-aminoacylation in series [1] stood at 27.9; in series [2] it was 4.58; in series [3] it was 4.82; in series [4] it was 4.93; in series [5], 3.76; in series [6] it was 6.23.
With “CUGCUUGAAACAAUCGGUCUG [Fam1A.1 aminoacylation ribozyme variant]”, the self-aminoacylation in series [1] stood at 0.928; in series [2], 0.9; in series [3] it was 0.842; in series [4] it was 0.959; in series [5], 0.867; in series [6], 1.07.
As for “AUUACUCUGGUCGUCGAGUGA [Fam2.1 aminoacylation ribozyme variant]”, the self-aminoacylation in series [1] worked out at 0.488; in series [2], 1.08; in series [3], 1.16; in series [4], 1.16; in series [5], 1.31; in series [6], 0.657.
Take “AUUCUCCUAGGUCAUCGGAUG [Fam2.2 aminoacylation ribozyme variant]”: the self-aminoacylation is 0.611 in series [1]; 1.03 in series [2]; 0.975 in series [3]; 1.1 in series [4]; 0.907 in series [5]; 0.795 in series [6].
Turning to “AUUACCUUGGUCAUCGAUUGA [Fam2.1 aminoacylation ribozyme variant]”, the self-aminoacylation in series [1] is 0.71; in series [2], 0.907; in series [3] it was 0.916; in series [4], 0.824; in series [5] it was 0.855; in series [6], 0.601.
For the sequence “AUGUGUGCUAAUAGUCGCAAG [Fam3.1 aminoacylation ribozyme variant]”, the self-aminoacylation in series [1] came out at 3.53; in series [2], 1.57; in series [3], 1.2; in series [4], 1.37; in series [5], 1.36; in series [6], 1.95.
Turning to “AUGACCCUGGUCAUUGAGUGA [Fam2.1 aminoacylation ribozyme variant]”, the self-aminoacylation was 49.8 in series [1]; 3.61 in series [2]; 7.27 in series [3]; 3 in series [4]; 7.74 in series [5]; 7.49 in series [6].
In the case of “AAGUUUCCUAAUAGUCGUAAG [Fam3.1 aminoacylation ribozyme variant]”, the self-aminoacylation in series [1] amounted to 2.58; in series [2] it was 1.2; in series [3], 1.18; in series [4] it was 1.07; in series [5], 1.07; in series [6], 1.27.
With “AGUACCCUGGUCUUCGAGUGA [Fam2.1 aminoacylation ribozyme variant]”, the self-aminoacylation amounted to 31.2 in series [1]; 3.54 in series [2]; 5.41 in series [3]; 3.27 in series [4]; 5.96 in series [5]; 7.11 in series [6].
As to “AAGUUUGCUCAAAGUCGCAAG [Fam3.1 aminoacylation ribozyme variant]”, the self-aminoacylation was found to be 2.29 in series [1]; 1.24 in series [2]; 1.37 in series [3]; 0.877 in series [4]; 0.974 in series [5]; 1.13 in series [6].
Regarding “CUACUGCAAACAAUUGGUCUG [Fam1A.1 aminoacylation ribozyme variant]”, the self-aminoacylation in series [1] is 1.18; in series [2] it was 1.19; in series [3], 0.966; in series [4], 1.07; in series [5], 0.823; in series [6] it was 0.956.
With “CUACUUCAAACAAACGGUCUA [Fam1A.1 aminoacylation ribozyme variant]”, the self-aminoacylation in series [1] was determined as 0.773; in series [2] it was 0.751; in series [3], 0.665; in series [4], 0.742; in series [5], 0.696; in series [6], 0.537.
For “AUUCCCCUAGGUCCUCGGGUG [Fam2.2 aminoacylation ribozyme variant]”, the self-aminoacylation in series [1] is 241; in series [2] it was 19.6; in series [3] it was 26.9; in series [4], 17.1; in series [5], 37.9; in series [6], 24.6.
As for “CGACUUCAAACAAUCCGUCUG [Fam1A.1 aminoacylation ribozyme variant]”, the self-aminoacylation amounted to 2.5 in series [1]; 1.27 in series [2]; 1.23 in series [3]; 1.18 in series [4]; 1.07 in series [5]; 1.72 in series [6].
In the case of “CUACUUCACACAGUCGGUCUG [Fam1A.1 aminoacylation ribozyme variant]”, the self-aminoacylation was found to be 0.389 in series [1]; 0.65 in series [2]; 0.619 in series [3]; 0.731 in series [4]; 0.682 in series [5]; 0.682 in series [6].
Regarding “AUUACCCUGGUAAUCCAGUGA [Fam2.1 aminoacylation ribozyme variant]”, the self-aminoacylation in series [1] is 51.9; in series [2], 4.07; in series [3] it was 8.47; in series [4], 4.36; in series [5] it was 8.77; in series [6] it was 10.7.
On to “AUUCACCUAGGUCAUCGGAAG [Fam2.2 aminoacylation ribozyme variant]”, for which the self-aminoacylation turned out to be 0.472 in series [1]; 0.622 in series [2]; 0.562 in series [3]; 0.782 in series [4]; 0.541 in series [5]; 0.705 in series [6].
“CCACACUUCAAGCAAUCUAUC [Fam1B.1 aminoacylation ribozyme variant]”: the self-aminoacylation is 0.891 in series [1]; 0.557 in series [2]; 0.422 in series [3]; 0.683 in series [4]; 0.533 in series [5]; 0.287 in series [6].
Regarding “CUACUUCAAGCAACCGGUCUG [Fam1A.1 aminoacylation ribozyme variant]”, the self-aminoacylation in series [1] worked out at 1.06; in series [2], 0.883; in series [3], 0.943; in series [4], 0.837; in series [5] it was 0.947; in series [6], 0.799.
In the case of “AUUCAGAUAGGUCAUCGGGUG [Fam2.2 aminoacylation ribozyme variant]”, the self-aminoacylation in series [1] is 49.6; in series [2] it was 4.19; in series [3], 6.75; in series [4] it was 3.77; in series [5], 7.3; in series [6], 5.8.
In the case of “AUUCACCUAUGUCAUCGGGCG [Fam2.2 aminoacylation ribozyme variant]”, the self-aminoacylation in series [1] stood at 10.4; in series [2], 2.22; in series [3] it was 2.79; in series [4], 2.13; in series [5], 2.87; in series [6] it was 2.2.
In the case of “AUUGCCCUGGUUAUCGAGUGA [Fam2.1 aminoacylation ribozyme variant]”, the self-aminoacylation in series [1] was found to be 58.7; in series [2], 4.09; in series [3], 8.87; in series [4], 4.17; in series [5], 9.13; in series [6], 10.7.
For “AUUCACCUAGGACAGCGGGUG [Fam2.2 aminoacylation ribozyme variant]”, the self-aminoacylation in series [1] stood at 15.1; in series [2] it was 2.23; in series [3] it was 2.49; in series [4], 2.21; in series [5], 2.58; in series [6], 2.
As for “CCACUCUUCAGGCAAUCGGUC [Fam1B.1 aminoacylation ribozyme variant]”, the self-aminoacylation in series [1] was determined as 0.929; in series [2], 1.31; in series [3], 1.34; in series [4] it was 1.49; in series [5], 1.33; in series [6] it was 1.23.
